Measurements reported in patent US20240343793A1 (TILLOTTS PHARMA, published 2024).
Residue numbers refer to the chain shown, from its start. Names and notes keep the numbering of the source. One block for each binder: values may come before it.

Key:
human C1q = human C1q (human, UniProt P02745 23-245; P02746 28-253; P02747 29-245); assay: ELISA: antibody titrated onto plate-coated human TNFα, then human C1q at 0.5 µg/mL, detected with rabbit anti-human C1q and HRP anti-rabbit IgG, absorbance 620 nm
Experimental: ELISA was performed using 96-well MaxiSorp plates where the wells were coated with human TNFα diluted to 1 μg/mL in PBS. After incubation O/N at 4° C., the plates were blocked with PBS containing 4% skimmed milk for 1 h and washed four times with PBS containing 0.05% Tween-20 (PBS-T). Then, titrated amounts of the anti-TNFα IgG antibodies were diluted in PBS-T, added and incubated for 1 h at RT. After washing using PBS-T, human C1q (0.5 μg/mL) was diluted in 0.1 M Veronal buffer (0.25 mM CaCl₂ and 0.8 mM MgCl₂ pH 7.2), added to the wells and incubated for 1 h. Subsequently, the wells were washed as above before rabbit anti-human C1q diluted 1:5000 in PBS-T was added to the wells and incubated for 1 h. After washing, an HRP-conjugated anti-rabbit IgG from donkey diluted 1:5000 in PBS-T was added. Subsequently, the wells were washed and 100 μL 3,3′,5,5′-Tetramethylbenzidine substrate was added to each well. The absorbance was measured at 620 nm using a Sunrise spectrophotometer.

[1] = biological target: T1, monomeric His-tagged human FcRn (human, UniProt P55899 24-297; P61769 21-119); assay: SPR (Biacore 3000), antibody amine-coupled, monomeric His-tagged hFcRn injected, pH 6.0; pH 6.0
T1 construct: also called hFcRn
Experimental: (§1) SPR was performed using a Biacore 3000 instrument with CM5 sensor chips coupled with anti-TNFα IgG1 antibodies (˜500 resonance units (RU)) using amine-coupling chemistry as described by the manufacturer. The coupling was performed by injecting 2.0 ug/mL of each protein in 10 mM sodium acetate, pH 4.5, using the amine-coupling kit (GE Healthcare). […] All SPR experiments were conducted at 25° C. with a flow rate of 40 ul/min. Binding data were zero-adjusted, and reference cell value subtracted. The Langmuir 1:1 ligand binding model provided by the BIAevaluation software (version 4.1) was used to determine the binding kinetics.

CD16a(V) [2] = biological target: T2, CD16a(V) (UniProt P08637 17-208); assay: SPR (Biacore), His-tagged FcγR captured on anti-His chip, antibody as analyte
T2 construct: His-tagged; also called Fcγ receptor CD16a(V)
Experimental: (§2) Affinity to FcγRs was measured by Biacore. A CM5 chip was prepared using standard amine immobilisation Biacore procedures. Upon insertion of a CM5 chip the system was primed and then normalised with BIA-normalizing solution (Biacore Preventative Maintenance Kit 2). The chip was added to the system with Phosphate Buffered Saline Tween-20 (PBS-T) running buffer; prior to immobilisation the chip surface was primed with three injections of 50 mM NaOH. FcγRs were immobilised on the chip surface using a His-tag capture system. The anti-His tag chip was prepared according to the Biacore kit instructions, with ˜12000 RU's of the antibody deposited on all 4 flow cells. To remove non-covalently bound material from all the chip flow cells, three 30 second 10 mM glycine pH 1.5 washes were performed. The Fcγ receptors were diluted in PBS-T to a range of 0.5-2 μg/mL, with 2.5-5.0 μL injected onto the chip generating capture levels between 60 and 200 RU's. Antibodies were diluted into PBS-T prior to analysis. Single cycle kinetics were used to estimate the steady state affinity. For each single cycle analysis cycle a titration of 5 antibody concentrations were injected over the FcγR ligand and then the dissociation of the complex was measured. The surface was regenerated using the recommended solution, 10 mM glycine pH 1.5 for the anti-His capture surface. A double referencing method was employed in which data from the ligand bound capture surface (fc 2 and 4) were subtracted from the references surfaces where no ligand was captured (fc 1 and 3 respectively). Blank injections of buffer were run for every antibody titration cycle and then subtracted from analyte injection cycles, to correct for small changes in the ligand capture surface. All analysis was performed at 25° C. and the sample rack was incubated at 10° C. during experimental runs. Each experiment was run at least three times.

human TNFα [3] = biological target: T3, human TNFα (human, UniProt P01375 77-233); assay: SPR (Biacore), antibody captured on Protein A, TNFα as analyte, single cycle kinetics, 25 C
T3 construct: also called recombinant TNFα
Experimental: Affinity to TNFα was measured by Biacore. A CM5 chip was prepared using standard amine immobilisation Biacore procedures. Upon insertion of a CM5 chip the system was primed and then normalised with BIA-normalising solution (Biacore Preventative Maintenance Kit 2). The chip was added to the system with PBS-T running buffer; prior to immobilisation the chip surface was primed with three injections of 50 mM NaOH. Protein A was immobilised on the chip surface. For this, the protein was diluted to 5 μg/mL into 10 mM acetate buffer at pH 4.5 and injected so to generate a bound response of ˜1000 RU's in all 4 flow cells. To remove non-covalently bound material from all the chip flow cells, three 15 second 50 mM NaOH washes were performed. On the Protein A chip, antibody was captured in flow cells 2 and 4, with flow cells 1 and 3 used for reference subtraction. The trial antibodies were diluted in PBS-T to 10 nM and 2.5-7.5 uL injected to obtain 120 RU of captured antibody. […] For each single cycle analysis cycle a titration of 5 analyte concentrations were injected over the ligand and then the dissociation of the complex was measured. The surface was regenerated using glycine pH 1.7. A double referencing method was employed in which data from the ligand bound capture surface (fc 2 and 4) were subtracted from the references surfaces where no ligand was captured (fc 1 and 3 respectively). Blank injections of buffer were run every 3-4 cycles and then subtracted from analyte injection cycles, to correct for small changes in the ligand capture surface. Repeat injections of analyte at the start and end of each analytical run were used to check for sample degradation, or changes in the instrument performance. All analysis was performed at 25° C. and the sample rack was incubated at 10° C. during experimental runs. Each experiment was run at least three times. A 1-to-1 binding model was used to fit the resulting kinetic data.

CD32b = biological target: T4, CD32b (UniProt P31994 46-217); assay: SPR (Biacore), His-tagged FcγR captured on anti-His chip, antibody as analyte
T4 construct: His-tagged; also called Fcγ receptor CD32b
T4 sequence (looked up): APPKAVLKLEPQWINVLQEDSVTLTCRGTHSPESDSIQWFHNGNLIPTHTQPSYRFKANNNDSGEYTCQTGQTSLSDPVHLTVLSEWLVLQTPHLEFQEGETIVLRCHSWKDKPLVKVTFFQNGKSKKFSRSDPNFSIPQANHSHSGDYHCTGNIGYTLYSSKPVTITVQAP
Experimental: as §2

CD64 = biological target: T5, CD64 (UniProt P12314 16-288, limits assumed); assay: as above
T5 construct: His-tagged (captured on an anti-His chip); also called Fcγ receptor CD64
Experimental: as §2

CD32a(H) = biological target: T6, CD32a(H) (UniProt P12318 36-218); assay: as above
T6 construct: His-tagged; also called Fcγ receptor CD32a(H)
T6 sequence (looked up): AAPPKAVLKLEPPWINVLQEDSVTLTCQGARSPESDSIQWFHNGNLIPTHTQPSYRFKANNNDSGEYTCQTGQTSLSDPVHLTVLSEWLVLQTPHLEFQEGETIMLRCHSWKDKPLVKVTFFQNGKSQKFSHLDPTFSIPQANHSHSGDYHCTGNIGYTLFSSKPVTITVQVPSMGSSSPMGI
Experimental: as §2

[4] = biological target: T1, monomeric His-tagged human FcRn; assay: SPR, pH 6.0; KD against that of Ab-wt; pH 6.0; fold change from wt
Experimental: as §1

CD16a(V) [5] = biological target: T2, CD16a(V); assay: SPR (Biacore), His-tagged FcγR captured; reference not named in the sentence (Ab-wt by Table 5)
Experimental: Affinity to FcγRs was measured by Biacore. A CM5 chip was prepared using standard amine immobilisation Biacore procedures. Upon insertion of a CM5 chip the system was primed and then normalised with BIA-normalizing solution (Biacore Preventative Maintenance Kit 2). The chip was added to the system with Phosphate Buffered Saline Tween-20 (PBS-T) running buffer; prior to immobilisation the chip surface was primed with three injections of 50 mM NaOH. FcγRs were immobilised on the chip surface using a His-tag capture system. The anti-His tag chip was prepared according to the Biacore kit instructions, with ˜12000 RU's of the antibody deposited on all 4 flow cells. To remove non-covalently bound material from all the chip flow cells, three 30 second 10 mM glycine pH 1.5 washes were performed. The Fcγ receptors were diluted in PBS-T to a range of 0.5-2 μg/mL, with 2.5-5.0 μL injected onto the chip generating capture levels between 60 and 200 RU's. Antibodies were diluted into PBS-T prior to analysis. Single cycle kinetics were used to estimate the steady state affinity. For each single cycle analysis cycle a titration of 5 antibody concentrations were injected over the FcγR ligand and then the dissociation of the complex was measured. The surface was regenerated using the recommended solution, 10 mM glycine pH 1.5 for the anti-His capture surface. […]

human TNFα [6] = biological target: T3, human TNFα; assay: cell-based or functional assay
CD16b(NA2) = biological target: T7, CD16b(NA2) (UniProt O75015 17-200, limits assumed); assay: SPR (Biacore), His-tagged FcγR captured on anti-His chip, antibody as analyte
T7 construct: His-tagged
Experimental: as §2

CD16a(F) = biological target: T8, CD16a(F) (UniProt P08637 17-208); assay: as above
T8 construct: His-tagged
Experimental: as §2

CD32a(R) = biological target: T9, CD32a(R) (UniProt P12318 36-218); assay: as above
T9 construct: His-tagged; also called Fcγ receptor CD32a(R)
T9 sequence (looked up): T6 sequence (looked up) with H132R
Experimental: as §2

[7] = biological target: T1, monomeric His-tagged human FcRn; assay: SPR, pH 6.0; KD against that of IFX; pH 6.0; fold change from IFX
Experimental: as §1

T2 sequence (P08637 17-208 F176V limits assumed): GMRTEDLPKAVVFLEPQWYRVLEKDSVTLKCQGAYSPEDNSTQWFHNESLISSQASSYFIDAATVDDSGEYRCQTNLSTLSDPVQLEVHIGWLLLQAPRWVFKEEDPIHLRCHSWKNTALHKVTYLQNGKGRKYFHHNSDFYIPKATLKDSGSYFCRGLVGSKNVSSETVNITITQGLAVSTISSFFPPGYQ
Chain of human C1q (P02745 23-245, chain 1 of 3): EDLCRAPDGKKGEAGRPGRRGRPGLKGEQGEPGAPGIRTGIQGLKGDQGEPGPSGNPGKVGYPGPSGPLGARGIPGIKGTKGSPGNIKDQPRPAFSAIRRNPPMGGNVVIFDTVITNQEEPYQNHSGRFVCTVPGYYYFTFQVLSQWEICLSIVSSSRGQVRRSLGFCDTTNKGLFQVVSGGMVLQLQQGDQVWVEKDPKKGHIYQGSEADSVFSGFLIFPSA
Chain of human C1q (P02746 28-253, chain 2 of 3): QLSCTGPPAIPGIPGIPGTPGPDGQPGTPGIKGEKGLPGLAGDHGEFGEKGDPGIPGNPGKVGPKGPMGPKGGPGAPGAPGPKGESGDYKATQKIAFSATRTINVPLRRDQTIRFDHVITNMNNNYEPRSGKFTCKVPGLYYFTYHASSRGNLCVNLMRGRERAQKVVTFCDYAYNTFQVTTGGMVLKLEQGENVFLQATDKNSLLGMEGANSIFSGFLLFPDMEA
Chain of human C1q (P02747 29-245, chain 3 of 3): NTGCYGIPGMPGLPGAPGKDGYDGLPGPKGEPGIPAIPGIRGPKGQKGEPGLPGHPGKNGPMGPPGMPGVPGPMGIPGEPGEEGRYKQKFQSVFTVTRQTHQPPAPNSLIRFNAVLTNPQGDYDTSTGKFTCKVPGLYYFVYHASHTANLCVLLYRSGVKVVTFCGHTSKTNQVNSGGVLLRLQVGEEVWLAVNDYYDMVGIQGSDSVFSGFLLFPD
T5 sequence (P12314 16-288 limits assumed): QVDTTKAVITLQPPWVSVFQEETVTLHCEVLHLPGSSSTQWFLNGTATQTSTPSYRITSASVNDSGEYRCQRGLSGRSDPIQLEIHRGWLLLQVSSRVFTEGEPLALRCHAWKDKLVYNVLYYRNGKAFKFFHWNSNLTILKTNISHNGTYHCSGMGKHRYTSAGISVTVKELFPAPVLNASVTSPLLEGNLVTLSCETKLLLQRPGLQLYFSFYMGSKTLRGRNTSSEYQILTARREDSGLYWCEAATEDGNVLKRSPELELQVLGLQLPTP
T3 sequence (P01375 77-233 limits assumed): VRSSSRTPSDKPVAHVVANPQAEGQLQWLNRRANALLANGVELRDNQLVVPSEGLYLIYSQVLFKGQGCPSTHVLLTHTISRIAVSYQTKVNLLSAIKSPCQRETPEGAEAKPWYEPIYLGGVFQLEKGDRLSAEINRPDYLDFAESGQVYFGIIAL
T7 sequence (O75015 17-200 N65S limits assumed): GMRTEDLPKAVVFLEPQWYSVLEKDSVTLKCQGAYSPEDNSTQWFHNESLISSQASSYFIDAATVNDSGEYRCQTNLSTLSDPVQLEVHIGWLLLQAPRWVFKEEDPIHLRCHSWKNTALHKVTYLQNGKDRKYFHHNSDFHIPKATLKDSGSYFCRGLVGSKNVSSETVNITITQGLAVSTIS
T8 sequence (P08637 17-208 limits assumed): as the sequence (P08637 17-208 F176V limits assumed) above, with V160F counted along it

- EC50 (read off the curve) (human C1q): ~0.5 µg/mL
B1: infliximab (antibody)
chain 1: not shown
chain 2: DILLTQSPAILSVSPGERVSFSCRASQFVGSSIHWYQQRTNGSPRLLIKYASESMSGIPSRFSGSGSGTDFTLSINTVESEDIADYYCQQSHSWPFTFGSGTNLEVKRTVAAPSVFIFPPSDEQLKSGTASVVCLLNNFYPREAKVQWKVDNALQSGNSQESVTEQDSKDSTYSLSSTLTLSKADYEKHKVYACEVTHQGLSSPVTKSFNRGEC

- Kd [1]: 1000 nM
- Kd (CD16a(V) [2]): 184 nM
- Kd (human TNFα [3]): 0.00413 nM
- koff (human TNFα [3]): 3.45e-05 s⁻¹
- kon (human TNFα [3]): 8.37e+06 M⁻¹ s⁻¹
- Kd (CD32b): 3140 nM
- Kd (CD64): 2.92 nM
- Kd (CD32a(H)): 670 nM
B2: Ab-wt (antibody, human IgG1, kappa)
heavy: not shown
light: DIQMTQSPSSLSASVGDRVTIKCQASQSIFSGLAWYQQKPGKAPKLLIYGASKLASGVPSRFSGSGSGTEFTLTISGLQPADFATYYCQSYYYSSSSSDGSYAFGGGTKLTVLGRTVAAPSVFIFPPSDEQLKSGTASVVCLLNNFYPREAKVQWKVDNALQSGNSQESVTEQDSKDSTYSLSSTLTLSKADYEKHKVYACEVTHQGLSSPVTKSFNRGEC
notes: Human IgG1 anti-TNFα antibody with wild-type Fc; also called parent antibody; wild-type antibody

- Fold change from wt [4]: 160 fold
- EC50 (read off the curve) (human C1q): ~0.6 µg/mL
- Kd [1]: 6.24 nM
- fold increase in affinity (CD16a(V) [5]): 5.5 fold
- IC50 (read off the curve) (human TNFα [6]): ~0.007 µg/mL
- Kd (CD16b(NA2)): 400 nM
- Kd (CD16a(V) [2]): 33.5 nM
- Kd (CD16a(F)): 150 nM
- kon (human TNFα [3]): 5.8e+06 M⁻¹ s⁻¹
- Kd (CD32b): 1130 nM
- Kd (CD64): 2.93 nM
- Kd (CD32a(R)): 1450 nM
- Kd (CD32a(H)): 1870 nM
- Fold change from IFX [7]: 68.1 fold
B3: Ab-REW-2FF (antibody, human IgG1, kappa)
heavy: EVQLVESGGGLVQPGGSLRLSCKASGIDFNNYGIGWVRQAPGKGLEWITYIYPGFAITNFANSVKGRFTISSDNSKNTVYLQMNSLRAEDTAVYYCARDPVYATSSGYFDLWGQGTLVTVSSASTKGPSVFPLAPSSKSTSGGTAALGCLVKDYFPEPVTVSWNSGALTSGVHTFPAVLQSSGLYSLSSVVTVPSSSLGTQTYICNVNHKPSNTKVDKKVEPKSCDKTHTCPPCPAPELLGGPSVFLFPPKPKDTLMISRTPEVTCVVVDVSHEDPEVKFNWYVDGVEVHNAKTKPREEQYNSTYRVVSVLTVLHRDWLNGKEYKCKVSNKALPAPIEKTISKAKGQPREPQVYTLPPSREEMTKNQVSLTCLVKGFYPSDIAVEWESNGQPENNYKTTPPVLDSDGSFFLYSKLTVDKSRWQQGNVFSCSVEHEALHWHYTQKSLSLSPGK
light: B2 light
modifications: N-glycans at N297 (EU numbering) with greatly reduced fucose (13% fucosylated), made with 2-deoxy-2-fluoro-fucose (2FF) in the culture medium
notes: IgG1; also called non-fucosylated variant of Ab-REW

- Fold change from wt [4]: 178 fold
- EC50 (read off the curve) (human C1q): ~0.4 µg/mL
- Kd [1]: 5.61 nM
- IC50 (read off the curve) (human TNFα [6]): ~0.007 µg/mL
- Kd (CD16b(NA2)): 1650 nM
- Kd (CD16a(V) [2]): 280 nM
- Kd (CD16a(F)): 2410 nM
- Kd (human TNFα [3]): 0.0033 nM
- koff (human TNFα [3]): 2.04e-05 s⁻¹
- kon (human TNFα [3]): 6.22e+06 M⁻¹ s⁻¹
- Kd (CD32b): 1210 nM
- Kd (CD64): 2.8 nM
- Kd (CD32a(R)): 1600 nM
- Kd (CD32a(H)): 780 nM
- Fold change from IFX [7]: 75.8 fold
B4: Ab-REW (antibody, human IgG1, kappa)
heavy: B3 heavy
light: B2 light
notes: IgG1; also called REW containing variant; Q311R/M428E/N434W variant of Ab-wt
